Experimental data from patent US20260265379A1 (IMCHECK THERAPEUTICS, published 2026).

B1: bsAb035 (bispecific antibody)
heavy (part 1 of 2): QVQLVQSGAEVKKPGASVKLSCKASGYIFTRYYMYWVKQRPGQGLEWIGEINPNNGGTKFNEKFKNRATLTVDKSISTAYMELSRLRSDDTAVYYCSREDDYDGTPFAMDYWGQGTLVTVSS
heavy (part 2 of 2): GGGGSGGGGSGGGGSGGGGSEVQLVESGGGLVQPGGSLRLSCAASGFTFSRYWMSWVRQAPGKGLEWVANIKQDGSEKYYVDSVKGRFTISRDNAKNSLYLQMNSLRAEDTAVYYCAREGGWFGELAFDYWGQGTLVTVSSGGGGSGGGGSGGGGSGGGGSEIVLTQSPGTLSLSPGERATLSCRASQRVSSSYLAWYQQKPGQAPRLLIYDASSRATGIPDRFSGSGSGTDFTLTISRLEPEDFAVYYCQQYGSLPWTFGQGTKVEIK
heavy: B1 heavy (part 1 of 2)
light: not shown
notes: IgG anti-BTN3A, one scFv anti-PD-L1; not shown: IgG1 CH1-hinge-CH2-CH3
B2: bsAb040 (bispecific antibody)
heavy (part 1 of 2): B1 heavy (part 1 of 2)
heavy (part 2 of 2): GGGGSGGGGSGGGGSGGGGSEIVLTQSPGTLSLSPGERATLSCRASQRVSSSYLAWYQQKPGQAPRLLIYDASSRATGIPDRFSGSGSGTDFTLTISRLEPEDFAVYYCQQYGSLPWTFGQGTKVEIKGGGGSGGGGSGGGGSGGGGSEVQLVESGGGLVQPGGSLRLSCAASGFTFSRYWMSWVRQAPGKGLEWVANIKQDGSEKYYVDSVKGRFTISRDNAKNSLYLQMNSLRAEDTAVYYCAREGGWFGELAFDYWGQGTLVTVSS
heavy: B1 heavy (part 1 of 2)
light: not shown
notes: as for B1
B3: bsAb055 (bispecific antibody)
heavy 1: B1 heavy (part 2 of 2)
heavy 2: B1 heavy (part 1 of 2)
light: not shown
notes: one Fab arm anti-BTN3A, one scFv anti-PD-L1; not shown: CH2-CH3 (Fc); IgG1 CH1-hinge-CH2-CH3
B4: bsAb011 (bispecific antibody)
heavy: QVQLVQSGAEVKKPGASVKLSCKASGYIFTRYYMYWVKQRPGQGLEWIGEINPNNGGTKFNEKFKNRATLTVDKSISTAYMELSRLRSDDTAVYYCSREDDYDGTPFAMDYWGQGTLVTVSSASTKGPSVFPLAPSSKSTSGGTAALGCLVKDYFPEPVTVSWNSGALTSGVHTFPAVLQSSGLYSLSSVVTVPSSSLGTQTYICNVNHKPSNTKVDKRVEPKSCDKTHTCPPCPAPEFEGGPSVFLFPPKPKDTLMISRTPEVTCVVVDVSHEDPEVKFNWYVDGVEVHNAKTKPREEQYNSTYRVVSVLTVLHQDWLNGKEYKCKVSNKALPASIEKTISKAKGQPREPQVYTLPPSREEMTKNQVSLTCLVKGFYPSDIAVEWESNGQPENNYKTTPPVLDSDGSFFLYSKLTVDKSRWQQGNVFSCSVMHEALHNHYTQKSLSLSPG
light: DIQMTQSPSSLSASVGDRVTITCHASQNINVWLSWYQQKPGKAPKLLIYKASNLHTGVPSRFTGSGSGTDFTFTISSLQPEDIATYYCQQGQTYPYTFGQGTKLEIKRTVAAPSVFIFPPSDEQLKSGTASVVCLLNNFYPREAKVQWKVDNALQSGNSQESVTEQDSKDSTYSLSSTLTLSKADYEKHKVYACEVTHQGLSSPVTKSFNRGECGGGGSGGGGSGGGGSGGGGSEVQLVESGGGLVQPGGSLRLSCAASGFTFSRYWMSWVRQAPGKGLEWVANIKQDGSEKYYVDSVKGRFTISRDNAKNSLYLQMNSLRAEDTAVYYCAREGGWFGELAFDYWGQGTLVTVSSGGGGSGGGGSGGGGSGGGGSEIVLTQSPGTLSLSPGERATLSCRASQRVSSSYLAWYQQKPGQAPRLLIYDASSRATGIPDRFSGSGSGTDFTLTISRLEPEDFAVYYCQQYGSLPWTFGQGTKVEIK
notes: IgG anti-BTN3A, scFv anti-PD-L1
B5: bsAb069 (bispecific antibody)
heavy 1: EVQLVESGGGLVQPGGSLRLSCAASGFTFSRYWMSWVRQAPGKGLEWVANIKQDGSEKYYVDSVKGRFTISRDNAKNSLYLQMNSLRAEDTAVYYCAREGGWFGELAFDYWGQGTLVTVSS
heavy 2: DIQMTQSPSSLSASVGDRVTITCHASQNINVWLSWYQQKPGKAPKLLIYKASNLHTGVPSRFTGSGSGTDFTFTISSLQPEDIATYYCQQGQTYPYTFGQGTKLEIKGGGGSGGGGSGGGGSGGGGSQVQLVQSGAEVKKPGASVKLSCKASGYIFTRYYMYWVKQRPGQGLEWIGEINPNNGGTKFNEKFKNRATLTVDKSISTAYMELSRLRSDDTAVYYCSREDDYDGTPFAMDYWGQGTLVTVSSGGGGSGGGGSGGGGSGGGGS
light: EIVLTQSPGTLSLSPGERATLSCRASQRVSSSYLAWYQQKPGQAPRLLIYDASSRATGIPDRFSGSGSGTDFTLTISRLEPEDFAVYYCQQYGSLPWTFGQGTKVEIKRTVAAPSVFIFPPSDEQLKSGTASVVCLLNNFYPREAKVQWKVDNALQSGNSQESVTEQDSKDSTYSLSSTLTLSKADYEKHKVYACEVTHQGLSSPVTKSFNRGECGGGGSGGGGSGGGGSGGGGSQVQLVQSGAEVKKPGASVKLSCKASGYIFTRYYMYWVKQRPGQGLEWIGEINPNNGGTKFNEKFKNRATLTVDKSISTAYMELSRLRSDDTAVYYCSREDDYDGTPFAMDYWGQGTLVTVSSGGGGSGGGGSGGGGSGGGGSDIQMTQSPSSLSASVGDRVTITCHASQNINVWLSWYQQKPGKAPKLLIYKASNLHTGVPSRFTGSGSGTDFTFTISSLQPEDIATYYCQQGQTYPYTFGQGTKLEIK
notes: not shown: IgG1 CH1-hinge-CH2-CH3; CH2-CH3 (Fc)
B6: bsAb070 (bispecific antibody)
heavy 1: B5 heavy 1
heavy 2: QVQLVQSGAEVKKPGASVKLSCKASGYIFTRYYMYWVKQRPGQGLEWIGEINPNNGGTKFNEKFKNRATLTVDKSISTAYMELSRLRSDDTAVYYCSREDDYDGTPFAMDYWGQGTLVTVSSGGGGSGGGGSGGGGSGGGGSDIQMTQSPSSLSASVGDRVTITCHASQNINVWLSWYQQKPGKAPKLLIYKASNLHTGVPSRFTGSGSGTDFTFTISSLQPEDIATYYCQQGQTYPYTFGQGTKLEIKGGGGSGGGGSGGGGSGGGGS
light: EIVLTQSPGTLSLSPGERATLSCRASQRVSSSYLAWYQQKPGQAPRLLIYDASSRATGIPDRFSGSGSGTDFTLTISRLEPEDFAVYYCQQYGSLPWTFGQGTKVEIKRTVAAPSVFIFPPSDEQLKSGTASVVCLLNNFYPREAKVQWKVDNALQSGNSQESVTEQDSKDSTYSLSSTLTLSKADYEKHKVYACEVTHQGLSSPVTKSFNRGECGGGGSGGGGSGGGGSGGGGSDIQMTQSPSSLSASVGDRVTITCHASQNINVWLSWYQQKPGKAPKLLIYKASNLHTGVPSRFTGSGSGTDFTFTISSLQPEDIATYYCQQGQTYPYTFGQGTKLEIKGGGGSGGGGSGGGGSGGGGSQVQLVQSGAEVKKPGASVKLSCKASGYIFTRYYMYWVKQRPGQGLEWIGEINPNNGGTKFNEKFKNRATLTVDKSISTAYMELSRLRSDDTAVYYCSREDDYDGTPFAMDYWGQGTLVTVSS
notes: as for B5

What was measured:
recombinant human BTN3A1 = target: T1, recombinant human BTN3A1 (human, UniProt O00481 30-254); assay: SPR
T1 construct: Soluble form of the antigen used in SPR; also called rhBTN3A1; recombinant BTN3A1 protein

recombinant human PD-L1 = target: T2, recombinant human PD-L1 (human, UniProt Q9NZQ7 19-239, limits assumed); assay: SPR
T2 construct: Soluble antigen in SPR; also called rhPD-L1

[1] = target: T3, PD-L1 at the surface of transduced cells (UniProt Q9NZQ7 19-290, limits assumed); assay: cell-based or functional assay
[2] = target: T3, PD-L1 at the surface of transduced cells; assay: flow cytometry, CHO-PD-L1 cells
[3] = target: T4, BTN3A1 at the surface of HEK-BTN3A1 cells (human, UniProt O00481 30-513); assay: flow cytometry, HEK-BTN3A1 cells
T4 construct: HEK 293T BTN2A/BTN3A KO cells transduced with a BTN3A1 expressing vector
T4 sequence (O00481 30-513 limits assumed): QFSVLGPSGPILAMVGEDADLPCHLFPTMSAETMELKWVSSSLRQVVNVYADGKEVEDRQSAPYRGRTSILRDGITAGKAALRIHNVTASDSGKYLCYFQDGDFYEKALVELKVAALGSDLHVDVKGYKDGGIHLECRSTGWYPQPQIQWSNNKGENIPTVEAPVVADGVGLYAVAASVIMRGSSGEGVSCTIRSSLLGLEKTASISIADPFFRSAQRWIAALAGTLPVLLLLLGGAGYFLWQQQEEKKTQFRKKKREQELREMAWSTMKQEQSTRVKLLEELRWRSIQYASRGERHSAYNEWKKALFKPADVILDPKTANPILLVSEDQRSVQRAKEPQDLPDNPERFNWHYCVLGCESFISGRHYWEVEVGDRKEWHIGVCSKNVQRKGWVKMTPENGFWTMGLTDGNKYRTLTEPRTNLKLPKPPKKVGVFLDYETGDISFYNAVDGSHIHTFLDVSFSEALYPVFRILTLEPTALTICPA

T3 sequence (Q9NZQ7 19-290 limits assumed): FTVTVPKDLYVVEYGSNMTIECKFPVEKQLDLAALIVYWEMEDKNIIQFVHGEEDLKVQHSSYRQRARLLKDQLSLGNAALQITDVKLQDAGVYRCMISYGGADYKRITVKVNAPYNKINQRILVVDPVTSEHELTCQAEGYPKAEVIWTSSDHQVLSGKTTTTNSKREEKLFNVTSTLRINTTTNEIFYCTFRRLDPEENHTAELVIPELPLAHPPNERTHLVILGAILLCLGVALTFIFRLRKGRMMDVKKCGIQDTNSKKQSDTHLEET
T2 sequence (Q9NZQ7 19-239 limits assumed): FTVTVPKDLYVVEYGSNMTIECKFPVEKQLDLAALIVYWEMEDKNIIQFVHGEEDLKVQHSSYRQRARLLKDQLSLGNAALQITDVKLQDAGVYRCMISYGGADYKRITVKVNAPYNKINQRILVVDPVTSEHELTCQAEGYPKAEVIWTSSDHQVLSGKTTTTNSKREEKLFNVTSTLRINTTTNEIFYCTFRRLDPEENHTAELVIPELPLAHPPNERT
T1 sequence (O00481 30-254 limits assumed): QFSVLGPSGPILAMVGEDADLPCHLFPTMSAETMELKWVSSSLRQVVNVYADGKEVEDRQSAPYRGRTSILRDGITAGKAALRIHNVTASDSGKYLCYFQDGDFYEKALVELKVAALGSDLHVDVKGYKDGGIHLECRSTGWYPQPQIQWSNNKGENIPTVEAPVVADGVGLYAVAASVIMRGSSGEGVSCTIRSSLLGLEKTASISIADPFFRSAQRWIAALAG

Row | Binder | Kd (recombinant human BTN3A1) | Kd (recombinant human PD-L1) | Jurkat-PD-1 activation at 10 nM [1] | Jurkat-PD-1 activation at 100 nM [1] | MFI at 10 nM [2] | MFI at 100 nM [2] | MFI at 10 nM [3] | MFI at 100 nM [3]
1 | B1 | 0.068 nM | 0.097 nM | 5 fold-change to medium | 7.9 fold-change to medium | 973000 MFI | 1.28e+06 MFI | 525000 MFI | 1.03e+06 MFI
2 | B2 | 0.065 nM | 0.066 nM | 6 fold-change to medium | 7.5 fold-change to medium | 1.04e+06 MFI | 1.25e+06 MFI | 634000 MFI | 1.23e+06 MFI
3 | B3 | 0.076 nM | 0.108 nM | 5.8 fold-change to medium | 7.4 fold-change to medium | 820000 MFI | 984000 MFI | 344000 MFI | 862000 MFI
4 | B4 | 0.504 nM | 0.043 nM | 6.4 fold-change to medium | 2.3 fold-change to medium | 682000 MFI | 722000 MFI | 512000 MFI | 1.14e+06 MFI
5 | B5 | 0.1 nM | 0.076 nM | – | – | 1.02e+06 MFI | 1.16e+06 MFI | 635000 MFI | 1.18e+06 MFI
6 | B6 | 0.074 nM | 0.079 nM | – | – | 1.05e+06 MFI | 1.2e+06 MFI | 790000 MFI | 1e+06 MFI
